# B1: ATP-binding cassette sub-family C member 2 (Homo sapiens) (protein)
# chain: MLEKFCNSTFWNSSFLDSPEADLPLCFEQTVLVWIPLGYLWLLAPWQLLHVYKSRTKRSSTTKLYLAKQVFVGFLLILAAIELALVLTEDSGQATVPAVRYTNPSLYLGTWLLVLLIQYSRQWCVQKNSWFLSLFWILSILCGTFQFQTLIRTLLQGDNSNLAYSCLFFISYGFQILILIFSAFSENNESSNNPSSIASFLSSITYSWYDSIILKGYKRPLTLEDVWEVDEEMKTKTLVSKFETHMKRELQKARRALQRRQEKSSQQNSGARLPGLNKNQSQSQDALVLEDVEKKKKKSGTKKDVPKSWLMKALFKTFYMVLLKSFLLKLVNDIFTFVSPQLLKLLISFASDRDTYLWIGYLCAILLFTAALIQSFCLQCYFQLCFKLGVKVRTAIMASVYKKALTLSNLARKEYTVGETVNLMSVDAQKLMDVTNFMHMLWSSVLQIVLSIFFLWRELGPSVLAGVGVMVLVIPINAILSTKSKTIQVKNMKNKDKRLKIMNEILSGIKILKYFAWEPSFRDQVQNLRKKELKNLLAFSQLQCVVIFVFQLTPVLVSVVTFSVYVLVDSNNILDAQKAFTSITLFNILRFPLSMLPMMISSMLQASVSTERLEKYLGGDDLDTSAIRHDCNFDKAMQFSEASFTWEHDSEATVRDVNLDIMAGQLVAVIGPVGSGKSSLISAMLGEMENVHGHITIKGTTAYVPQQSWIQNGTIKDNILFGTEFNEKRYQQVLEACALLPDLEMLPGGDLAEIGEKGINLSGGQKQRISLARATYQNLDIYLLDDPLSAVDAHVGKHIFNKVLGPNGLLKGKTRLLVTHSMHFLPQVDEIVVLGNGTIVEKGSYSALLAKKGEFAKNLKTFLRHTGPEEEATVHDGSEEEDDDYGLISSVEEIPEDAASITMRRENSFRRTLSRSSRSNGRHLKSLRNSLKTRNVNSLKEDEELVKGQKLIKKEFIETGKVKFSIYLEYLQAIGLFSIFFIILAFVMNSVAFIGSNLWLSAWTSDSKIFNSTDYPASQRDMRVGVYGALGLAQGIFVFIAHFWSAFGFVHASNILHKQLLNNILRAPMRFFDTTPTGRIVNRFAGDISTVDDTLPQSLRSWITCFLGIISTLVMICMATPVFTIIVIPLGIIYVSVQMFYVSTSRQLRRLDSVTRSPIYSHFSETVSGLPVIRAFEHQQRFLKHNEVRIDTNQKCVFSWITSNRWLAIRLELVGNLTVFFSALMMVIYRDTLSGDTVGFVLSNALNITQTLNWLVRMTSEIETNIVAVERITEYTKVENEAPWVTDKRPPPDWPSKGKIQFNNYQVRYRPELDLVLRGITCDIGSMEKIGVVGRTGAGKSSLTNCLFRILEAAGGQIIIDGVDIASIGLHDLREKLTIIPQDPILFSGSLRMNLDPFNNYSDEEIWKALELAHLKSFVASLQLGLSHEVTEAGGNLSIGQRQLLCLGRALLRKSKILVLDEATAAVDLETDNLIQTTIQNEFAHCTVITIAHRLHTIMDSDKVMVLDNGKIIECGSPEELLQIPGPFYFMAKEAGIENVNSTKF
# Assays:
# [1] = target: ATP-binding cassette sub-family C member 2 (Homo sapiens, UniProt Q92887); test: (§1) TP_TRANSPORTER: uptake in bile canalicular membrane vesicles; assay type: functional, cell membranes, Bile canalicular membrane vesicle
# [2] = substrate: CNc1nc2c(Cc3cccnc3)c(C)c(O[C@@H]3O[C@H](C(=O)O)[C@@H](O)[C@H](O)[C@H]3O)c(C)c2s1; test: as §1; assay type: functional, cell membranes, Homo sapiens, Bile canalicular membrane vesicle
# [3] = substrate: N[C@@H](CCC(=O)N[C@H](CSc1ccc([N+](=O)[O-])cc1[N+](=O)[O-])C(=O)NCC(=O)O)C(=O)O; test: as §1; assay type: functional, cell membranes, Homo sapiens, Bile canalicular membrane vesicle
Molecule,Activity [1],Km [2] [µM],Km [3] [µM]
Cc1c(F)c(N2CCNC(C)C2)cc2c1c(=O)c(C(=O)O[C@@H]1O[C@H](C(=O)O)[C@@H](O)[C@H](O)[C@H]1O)cn2C1CC1 (stereo partly drawn) [GREPAFLOXACIN GLUCURONIDE],substrate [+],–,–
B1,–,14.1,193
